For four molecules, IC50 (pM) BAFF + APRIL and IC50 (pM) APRIL results are on record in patent US20240279310A1.

Like-named read-outs stand apart in the source and are kept apart here.

Common to all, as to experiment: cell-based or functional assay
In experiment [1] the target is APRIL+BAFF (15 nM APRIL+10 nM BAFF) in combination.
The target is the same in experiment [2]. This is another data set of the same source.
Experiment [3] has as its target recombinant human APRIL (Tonbo Biosciences) (human) (UniProt O75888).

Chain of recombinant human APRIL (Tonbo Biosciences) (human) (O75888 105-250 limits assumed): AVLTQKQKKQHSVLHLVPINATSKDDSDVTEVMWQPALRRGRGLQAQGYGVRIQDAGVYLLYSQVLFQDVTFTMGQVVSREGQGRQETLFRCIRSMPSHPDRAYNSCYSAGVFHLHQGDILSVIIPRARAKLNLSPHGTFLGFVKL

B1: 26 TACI CRD2-Fc (TACI vTD SEQ ID NO:26, K77E/F78Y/Y102D; Fc fusion SEQ ID NO: 167) (Fc fusion)
chain: SLSCRKEQGEYYDHLLRDCISCASICGQHPKQCADFCENKLRSGSGGGGSEPKSSDKTHTCPPCPAPEAEGAPSVFLFPPKPKDTLMISRTPEVTCVVVDVSHEDPEVKFNWYVDGVEVHNAKTKPREEQYNSTYRVVSVLTVLHQDWLNGKEYKCKVSNKALPAPIEKTISKAKGQPREPQVYTLPPSRDELTKNQVSLTCLVKGFYPSDIAVEWESNGQPENNYKTTPPVLDSDGSFFLYSKLTVDKSRWQQGNVFSCSVMHEALHNHYTQKSLSLSPG
On to B1, for which, in experiment [1], the IC50 (pM) BAFF + APRIL was determined as 1390 pM.

B2: atacicept (WT TACI-Fc sequences corresponding to atacicept, containing WT TACI 30-110; SEQ ID NO:132) (Fc fusion)
chain: AMRSCPEEQYWDPLLGTCMSCKTICNHQSQRTCAAFCRSLSCRKEQGKFYDHLLRDCISCASICGQHPKQCAYFCENKLRSEPKSSDKTHTCPPCPAPEAEGAPSVFLFPPKPKDTLMISRTPEVTCVVVDVSHEDPEVKFNWYVDGVEVHNAKTKPREEQYNSTYRVVSVLTVLHQDWLNGKEYKCKVSNKALPSSIEKTISKAKGQPREPQVYTLPPSRDELTKNQVSLTCLVKGFYPSDIAVEWESNGQPENNYKTTPPVLDSDGSFFLYSKLTVDKSRWQQGNVFSCSVMHEALHNHYTQKSLSLSPGK
On to B2, for which the IC50 (pM) BAFF + APRIL in experiment [1] turned out to be 7720 pM.

B3: anti-APRIL mAb BION-1301 (antibody, INN chains, looked up, V domains shown)
VH: QVQLVQSGAEVKKPGASVKVSCKASGYTFTDYTIHWVRQATGQGLEWMGWIYPLRGSINYAQKFQGRVTMTADKSISTVYMELSSLRSEDTAVYFCARHGAYYSNAFDYWGQGTLVTVSS
VL: EIVMTQSPATLSVSPGERATLSCRASESVDNDGIRFLHWYQQKPGQAPRLLIYRASTRATGIPARFSGSGSRTEFTLTISSLQSEDFAVYYCQQSNKDPYTFGGGTKVEIK
As to B3, the IC50 (pM) BAFF + APRIL in experiment [2] is more than 100000 pM. Moreover, the IC50 (pM) APRIL in experiment [3] stood at 4900 pM.

B4: belimumab, anti-BAFF monoclonal antibody (antibody, INN chains, looked up, V domains shown)
VH: QVQLQQSGAEVKKPGSSVRVSCKASGGTFNNNAINWVRQAPGQGLEWMGGIIPMFGTAKYSQNFQGRVAITADESTGTASMELSSLRSEDTAVYYCARSRDLLLFPHHALSPWGRGTMVTVSS
VL: SSELTQDPAVSVALGQTVRVTCQGDSLRSYYASWYQQKPGQAPVLVIYGKNNRPSGIPDRFSGSSSGNTASLTITGAQAEDEADYYCSSRDSSGNHWVFGGGTELTVLG
For B4, the IC50 (pM) BAFF + APRIL in experiment [2] is more than 100000 pM.
